Values of other authors, collected in article PMC2225448.

Legend:
[1] = target: ErbB2 (Homo sapiens) (UniProt P04626)
[2] = target: EGFR pY1069 pY1069 (Homo sapiens) (UniProt P00533)
[3] = target: EGFR pY1069 (Homo sapiens) (UniProt P00533)

Chain of Grb7 (Q14451 whole entry): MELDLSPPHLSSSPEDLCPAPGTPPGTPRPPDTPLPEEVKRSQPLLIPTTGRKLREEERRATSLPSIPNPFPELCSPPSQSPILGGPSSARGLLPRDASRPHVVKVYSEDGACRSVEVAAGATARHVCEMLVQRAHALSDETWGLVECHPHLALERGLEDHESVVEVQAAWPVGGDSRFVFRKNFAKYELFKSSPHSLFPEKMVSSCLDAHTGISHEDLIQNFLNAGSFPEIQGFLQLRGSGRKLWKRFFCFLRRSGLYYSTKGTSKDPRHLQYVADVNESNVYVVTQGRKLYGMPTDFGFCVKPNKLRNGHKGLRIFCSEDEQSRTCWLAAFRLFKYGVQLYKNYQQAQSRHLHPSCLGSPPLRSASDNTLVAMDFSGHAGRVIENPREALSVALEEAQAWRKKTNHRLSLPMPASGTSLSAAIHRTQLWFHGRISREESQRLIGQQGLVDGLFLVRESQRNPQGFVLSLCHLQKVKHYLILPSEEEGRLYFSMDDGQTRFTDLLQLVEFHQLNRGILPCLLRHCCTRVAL

In the case of Grb7 (from UniProt Q14451), the Kd [1] is listed as 2300 nM.
For Cbl (from UniProt P22681), the Kd [2] is listed as 400 nM and the Kd [3] is listed as 400 nM.
